Experimental data published in patent US6022955A, “Fatty acid -- pulmonary surfactant conjugates” (Abbott Laboratories, priority 1991, dated 2000).
Ends that are not written are not given here.

B1: SPB (1-78): synthetic full length SP-B peptide, sequence based on natural SP-B (peptide, UniProt P07988 201-279, looked up)
Pulmonary …: FPIPLPYCWLCRALIKRIQAMIPKGALAVAVAQVCRVVPLVAGGICQCLAERYSVILLDTLLGRMLPQLVCRLVLRCSM
modifications: Pulmonary surfactant-associated protein B

Assays:
Format in all cases: physicochemical
[1] = Modified Wilhelmy surface balance (Langmuir trough): dynamic surface tension vs compressed surface area; details: 37° C.; for Equilibrum (equilibrium adsorption value): after a three (3) minute spreading time, total peptide 0.5 mg/ml; for Wilhelmy-Langmuir Trough Max (maximum dynamic surface tension) / Wilhelmy-Langmuir Trough Min (minimum dynamic surface tension): peptide/lipid admixture, total peptide 0.5 mg/ml (2%; two peptides 0.25 mg/ml each), 675 μg phospholipid, seven compression-expansion cycles, average of 3 runs
Description: The dynamic surface tension lowering properties of the peptide/lipid admixtures were studied using a modified Wilhelmy Surface Balance (Langmuir Trough). The instrument consists of an all Teflon trough and movable Teflon ribbon (dam) barrier system which completely contains and defines a variable surface area. Surface area was varied through the use of a constant rate reversible 3-phase motor to drive the Teflon barrier. A Cahn 2000 electrobalance (Cahn Instruments, Cerittos, Calif.) with a sandblasted 1 cm platinum plate and stainless steel hangdown wire was employed to determine the surface tension at the liquid-air interface. The entire apparatus was situated in a thermostated incubator set at 45° C. Surface area-surface tension measurements were made by adding 950 ml of 0.15 M NaCl to the trough. Subphase temperature was controlled during the measurements at 36-38° C.
For each experiment 27 ul of peptide/lipid admixture was applied in a random array of 13 (.congruent.2 ul) droplets to the surface of the temperature controlled subphase and allowed to spread spontaneously for 3 minutes. (The 27 ul application corresponds to 675 ug of phospholipid). The trough surface area was then cycled from a maximum (445 sq. cm) to a minimum (178 sq. cm) surface area and back to maximum at a cycling rate of 3 cycles/min (compression ratio 2.5:1). The dynamic surface tension vs surface area was recorded for 7 complete compression-expansion cycles for each application.

[2] = Adsorption rate, King-Clements system (Wilhelmy balance, stirred Teflon dish); details: 10 ml of diluted sample (1:50) added under constant agitation to 70 ml saline subphase; 37° C.; total peptide 0.5 mg/ml
Description: A procedure similar to that described by Notter, et al., Pediatric Res. 16, 515-519, (1982) was employed to determine the absorption rate in the absence of diffusion resistance. The modified Wilhelmy surface balance as described above was used. However, instead of using a Langmuir trough a round Teflon dish (5.1 cm diameter) was employed. The subphase, 70 ml of 0.15 M NaCl, was allowed to equilibrate to 37° C. in the incubator and was continuously stirred with a Teflon coated magnetic stirer. An aliquot of the peptide/lipid admixture containing 5 mg of total phospholipid was dispersed in 10 ml of 0.15 M NaCl by vortexing for 10 seconds. This dispersion was then added to the saline subphase. Surface tension lowering was monitored using a strip chart recorder connected to the electrobalance output and data collected for 20 minutes.

[3] = Pulsating bubble surfactometer (PBS); details: after 100 cycles (5 minutes, 20 cycles/minute); phospholipid 1 mg/ml; 37° C.; […] NaCl; mean of triplicate
Description: The PBS equipment (Electronetics, Buffalo, N.Y.) used was essentially equivalent to that described in detail by G. Enhorning, J. Appid. Physiol. 43, 198-203, (1977). Recordings were made of the pressure gradient across the wall of a small air bubble, communicating with ambient air by means of a narrow chimney stack, but otherwise entirely surrounded by a 40 ul volume of the peptide/lipid admixture. The admixture concentration employed for these studies was 1 mg/ml total phospholipid (0.02 mg/ml total peptide) and the diluent was 0.15 M NaCl. Immediately prior to loading the sample chamber, the diluted samples were sonicated for 15 seconds to remove any gas nuclei.
The pressure drop across the air-water interface was measured during pulsation by a pressure transducer, and the corresponding surface tension determined through the application of Young's law and the Laplace equation. Measurements were all made at 37° C. and the bubble pulsed at 20 cycles/minute to render respectively a maximum (1.1. mm) and a minimum (0.8 mm) bubble diameter. (This compression/expansion corresponds to a 50% change in the surface area of the air-water interface).

| Molecule | Equilibrum (equilibrium adsorption value) [1] | Wilhelmy-Langmuir Trough Max (maximum dynamic surface tension) [1] | Wilhelmy-Langmuir Trough Min (minimum dynamic surface tension) [1] | King-Clements Adsorption (surface tension) [2] | Surface Tension Values Maximum (pulsating bubble apparatus) [3] | Surface Tension Values Minimum (pulsating bubble apparatus) [3] |
| --- | --- | --- | --- | --- | --- | --- |
| SPB (53-78): synthetic C-terminal SP-B fragment (YSVILLDTLLGRMLPQLVCRLVLRCS; ends and bridges not checked; cysteine pairing not given here; UniProt P07988 253-278, looked up, fragment) | 40.0 dynes/cm | 49.3 dynes/cm | 0.1 dynes/cm | 45.0 dynes/cm | 55.5 dynes/cm | 4.9 dynes/cm |
| B1 | 38.0 dynes/cm | 45.0 dynes/cm | 0.0 dynes/cm | 30.0 dynes/cm | 49.0 dynes/cm | 4.2 dynes/cm |
